Measured values published in patent US20260097129A1, “ANTIBODY-DRUG CONJUGATE COMPRISING DRUG AND ANTIBODY SPECIFICALLY BINDING TO GRP94 OR ANTIGEN-BINDING FRAGMENT THEREOF” (KOOKMIN UNIVERSITY INDUSTRY ACADEMY COOPERATION FOUNDATION, priority 2022, published 2026).

What was measured:
HCT116 = experiment: Cell proliferation assay, real-time live cell imaging (Incucyte); format: cell-based, human; settings: 133 nM K101.1, 33 nM and 133 nM K101.1-Sec-DM1, 62 hours, FIG. 9
Procedure: (§1) To investigate the effect of K101.1-Sec-DM1 on CRC cell growth in vitro, 1×10^4 HT29, LoVo, or 5×10^3 HCT116 CRC cells were seeded in the wells of a 96-well plate and incubated at 37° C. for 16 hours. The cells were then treated with either 133 nM of K101.1 or 33 nM and 133 nM of K101.1-Sec-DM1, with or without the presence of the drug. Cell growth was measured for 62 hours using the Incucyte SX1 live cell analysis instrument (Sartorius).

HT29 = experiment: as above; format: cell-based, human; settings: 133 nM K101.1, 33 nM and 133 nM K101.1-Sec-DM1, 62 hours, FIG. 9
Procedure: as §1

LoVo = experiment: as above; format: cell-based, human; settings: 133 nM K101.1, 33 nM and 133 nM K101.1-Sec-DM1, 62 hours, FIG. 9
Procedure: as §1

HCT116 cells = experiment: Antibody internalization, FabFluor-pH Red labeling, Incucyte live cell imaging; format: cell-based, human
Procedure: Antibody internalization in HCT116 cells was measured using the FabFluor-pH Red Antibody Labeling Reagent (Sartorius, Gottingen, Germany) according to the manufacturer's instructions. […] HCT116 cells were seeded at a density of 10,000 cells/well in a 96-well culture plate and allowed to adhere overnight. The control IgG, K101.1, or trastuzumab (MedChemExpress, Princeton, NJ, USA) were individually labeled with the human FabFluor-pH Red antibody labeling reagent at a 1:3 molar ratio in PBS and incubated for 15 minutes. The labeled antibodies were added to the cell culture medium at a final concentration of 2 μg/ml. The plate was transferred to the Incucyte SX1 live cell analysis system (Sartorius) and images were captured with a 10× objective lens for 12 hours. The fluorescence intensity was individually measured for each image.
The internalization of antibodies in HCT116 cells was measured using the FabFluor-pH Red antibody labeling reagent (Sartorius, Göttingen, Germany) according to the manufacturer's instructions. […] However, after internalization of the reagent-labeled antibody, the fluorescence intensity increases under the acidic conditions inside endosomes and lysosomes. HCT116 cells were seeded at a density of 10,000 cells per well in a 96-well culture plate and allowed to attach overnight. […] Fluorescence intensity was then measured.

rhGRP94 = rhGRP94 (Homo sapiens, UniProt P14625); experiment: ELISA binding to immobilized rhGRP94; settings: immobilized rhGRP94, FIG. 8
Procedure: (§2) A 96-well microplate was coated with 0.1 μg of rhGRP94 and incubated at 4° C. for 16 hours. After blocking the plate with 3% (w/v) BSA in PBS at 37° C. for 2 hours, the plate was incubated with 20 µg/mL of K101.1-Sec (SelT) at 37° C. for 2 hours. After washing the plate three times with PBS-T, it was incubated with HRP-conjugated anti-human Fc secondary antibody (1:5,000; Invitrogen) or HRP-conjugated anti-HA antibody (1:3,000; Bethyl Laboratories, Montgomery, TX, USA) at 37° C. for 1 hour. The color reaction was initiated with 100 μL of TMB substrate solution and terminated with 2N H2SO4 solution. Optical density was measured at 450 nm using a microplate reader.
as §2, with “blocking” for “blocking the plate”, “20 μg/mL” for “20 µg/mL”, “washing” for “washing the plate”, “PBS-T, the plate” for “PBS-T, it”, “Invitrogen)” for “Invitrogen) or HRP-conjugated anti-HA antibody (1:3,000; Bethyl Laboratories, Montgomery, TX, USA)”

rmGRP94 = rmGRP94 (Mus musculus, UniProt P08113); experiment: ELISA binding to immobilized rmGRP94; settings: immobilized rmGRP94, FIG. 8
Chain of rmGRP94 (P08113 22-802): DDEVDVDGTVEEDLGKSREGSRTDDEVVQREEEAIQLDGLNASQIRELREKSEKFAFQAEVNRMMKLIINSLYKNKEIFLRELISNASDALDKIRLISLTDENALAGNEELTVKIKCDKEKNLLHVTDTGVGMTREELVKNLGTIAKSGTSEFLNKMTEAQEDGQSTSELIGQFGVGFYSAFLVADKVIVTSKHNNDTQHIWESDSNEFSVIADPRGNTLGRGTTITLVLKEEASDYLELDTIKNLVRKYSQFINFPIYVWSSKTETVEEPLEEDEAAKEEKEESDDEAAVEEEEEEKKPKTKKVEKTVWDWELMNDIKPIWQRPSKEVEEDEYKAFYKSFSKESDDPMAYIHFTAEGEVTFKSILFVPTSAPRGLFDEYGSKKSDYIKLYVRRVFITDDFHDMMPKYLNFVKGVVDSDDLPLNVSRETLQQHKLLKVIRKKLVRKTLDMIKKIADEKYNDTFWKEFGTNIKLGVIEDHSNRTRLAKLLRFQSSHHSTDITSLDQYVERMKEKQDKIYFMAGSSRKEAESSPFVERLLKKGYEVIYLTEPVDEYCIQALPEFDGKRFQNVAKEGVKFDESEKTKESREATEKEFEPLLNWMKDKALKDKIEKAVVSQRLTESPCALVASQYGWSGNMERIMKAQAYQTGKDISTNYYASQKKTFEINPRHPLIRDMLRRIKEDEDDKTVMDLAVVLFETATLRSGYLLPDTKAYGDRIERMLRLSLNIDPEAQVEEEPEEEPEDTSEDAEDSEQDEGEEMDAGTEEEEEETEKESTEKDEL

Chain of rhGRP94 (P14625 22-803): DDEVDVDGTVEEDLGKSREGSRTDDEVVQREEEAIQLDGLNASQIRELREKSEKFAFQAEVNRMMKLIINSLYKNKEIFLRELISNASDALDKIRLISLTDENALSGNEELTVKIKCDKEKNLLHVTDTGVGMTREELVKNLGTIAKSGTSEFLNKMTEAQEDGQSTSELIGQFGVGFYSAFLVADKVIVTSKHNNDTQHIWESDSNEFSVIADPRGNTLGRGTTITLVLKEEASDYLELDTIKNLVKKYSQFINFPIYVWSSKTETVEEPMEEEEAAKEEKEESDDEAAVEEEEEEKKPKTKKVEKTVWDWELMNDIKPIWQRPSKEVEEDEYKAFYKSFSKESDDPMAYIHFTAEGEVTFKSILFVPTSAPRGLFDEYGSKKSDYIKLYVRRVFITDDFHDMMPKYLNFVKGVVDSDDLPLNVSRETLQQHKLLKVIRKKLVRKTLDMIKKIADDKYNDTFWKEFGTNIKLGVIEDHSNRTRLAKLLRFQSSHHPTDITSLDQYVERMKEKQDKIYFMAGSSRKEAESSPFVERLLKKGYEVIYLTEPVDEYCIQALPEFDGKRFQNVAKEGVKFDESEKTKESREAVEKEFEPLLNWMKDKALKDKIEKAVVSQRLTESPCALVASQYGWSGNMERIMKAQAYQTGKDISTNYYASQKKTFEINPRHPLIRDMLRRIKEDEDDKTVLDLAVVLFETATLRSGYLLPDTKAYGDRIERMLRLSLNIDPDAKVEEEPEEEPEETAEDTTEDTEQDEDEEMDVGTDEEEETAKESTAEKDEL

B1: K101.1: GRP94-specific IgG antibody, CDRs SEQ ID NO: 1-6, VH SEQ ID NO: 7, VL SEQ ID NO: 8 (antibody, V domains shown)
VH: EVQLLESGGGLVQPGGSLRLSCAASGFTFSNYSMSWVRQAPGKGLEWVSGIYYGSGNKYYADSVKGRFTISRDNSKNTLYLQMNSLRAEDTAVYYCAKNLASFDYWGQGTLVTVSS
VL: QSVLTQPPSASGTPGQRVTISCSGSSSNIGSNSVNWYQQLPGTAPKLLIYSNSHRPSGVPDRFSGSKSGTSASLAISGLRSEDEADYYCGTWDSSLSGYVFGGGTKLTVL
HCT116
  effect on CRC cell growth: little to no effect
HT29
  effect on CRC cell growth: little to no effect
LoVo
  effect on CRC cell growth: little to no effect
HCT116 cells; labeled antibody 2 μg/mL, imaged for 10 hours, Example 2, FIG. 10
  antibody internalization (FabFluor fluorescence intensity): exhibited stronger internalization than trastuzumab
HCT116 cells; labeled antibody 2 μg/ml, imaged for 12 hours, Example 1, FIG. 1
  antibody internalization (FabFluor red fluorescence intensity): promoted internalization more efficiently than trastuzumab

B2: K101.1-Sec-DM1 (conjugate)
heavy: B1 VH
light: B1 VL
modifications: non-natural residues; left off: small tags and cut ends; large carriers
rhGRP94
  antigen binding by ELISA compared with parent antibody K101.1: no significant difference in antigen binding
HCT116
  effect on CRC cell growth: significantly and more strongly inhibited the growth
HT29
  effect on CRC cell growth: significantly and more strongly inhibited the growth
LoVo
  effect on CRC cell growth: significantly and more strongly inhibited the growth
rmGRP94
  antigen binding by ELISA compared with parent antibody K101.1: no significant difference in antigen binding
